Results on one molecule are retold here after patent publication US20090202508A1, “NEGATIVE REGULATION OF HYPOXIA INDUCIBLE FACTOR 1 BY OS-9” (THE JOHNS HOPKINS UNIVERSITY, priority 2004, published 2009).

Assay [1] deals with T1, PHD2 (Homo sapiens, UniProt Q9GZT9).
T1 construct: expressed in transfected cells; host or cells: 293 cells (whole cell lysate used as the enzyme source)
The assay is described as follows: Prolyl hydroxylation assay / in vitro VHL binding assay with GST-HIF-1α (531-826). It counts as biochemical. The protocol: [^35S]methionine-labeled VHL protein was synthesized in vitro and GST-HIF-1α (531-826) fusion protein (GstA) was expressed in E. coli. 293 cells were transfected with empty, PHD2, or OS-9 expression vector. After 24 h, cells were washed twice with cold hypotonic extraction buffer containing 20 mM Tris (pH 7.5), 5 mM KCl, 1.5 mM MgCl2, 1 mM dithiothreitol and lysed with hypotonic extraction buffer in a Dounce homogenizer. The cell extract was centrifuged at 10,000×g for 10 min at 4° C., and the supernatant was stored in aliquots at −70° C. GstA (4 μg) was preincubated with whole cell lysate (50 μg) in a total volume of 50 μl with PBS-T at 30° C. for 10 min with or without 1 mM dimethyloxalyl glycine (DMOG). The reaction was terminated by addition of desferrioxamine to 1 mM. One aliquot (0.5 μg of GstA) was used for immunoblot assay using anti-hydroxyproline-564 HIF-1α antibody (Chan et al., 2002). The remainder ([…] of GstA) was used for in vitro VHL binding assay.
(§1) For in vitro VHL binding assay, preincubated GstA and 5 μl of [^35S]methionine-labeled VHL protein were mixed in a total volume of 300 μl of PBS-T with 1 mM desferrioxamine and incubated at 4° C. for 90 min. 20 ul of glutathione-Sepharose-4B beads (Amersham Biosciences) was added and incubated for 30 min with rotation. Beads were washed three times with PBS-T. Proteins were eluted in Laemmli sample buffer, fractionated by SDS-PAGE, and detected by autoradiography. For PHD binding assay, […] of GST-HIF-1α was preincubated with 50 μg of -whole cell lysate in a total volume of 50 μl with PBS-T at 30° C. for 10 min with or without 1 mM DMOG. The reaction was terminated by addition of desferrioxamine to 1 mM, 20 μl of glutathione-Sepharose-4B beads were added and incubated for 30 min. The beads were washed three times with PBS-T. Bound protein was eluted in Laemmli sample buffer, fractionated by SDS-PAGE, and subjected to immunoblot assay using antibodies against PHD2 (Novus Biologicals Inc.) or GST (Amersham).

The subject of assay [2] is PHD2. The assay is described as follows: PHD2 protein levels by immunoblot in transfected 293 cells. It is filed as cell-based, human. As to conditions: co-transfection of OS-9 vector; FIG. 7C. The protocol: 293 or Hep3B cells were seeded onto 24-well plates at 8×10^4 cells per well of a 24-well plate. The following day, the cells were transfected with plasmid DNAs using Fugene-6 (Roche) for 293 and Lipofectamine Plus (Invitrogen) for Hep3B cells. After 24 h, the cells were exposed to 20% or 1% O2 for 24 h. Cells were lysed, and the luciferase activities were determined by multi-well luminescence reader (PerkinElmer), using the Dual-Luciferase Reporter Assay System (Promega). For p2.1 reporter assay, cells were co-transfected with 15 ng of control reporter pSV-Renilla, 135 ng of HIF-1 reporter p2.1, and expression vector encoding HA-OS-9, HIF-1α, or empty vector. Unless indicated otherwise, 200 ng of HIF-1α, 400 ng of HA-OS-9, 1 ng of PHD2, or 1 ng of HIF-1α triple mutant P402A/P564A/N803A (HIF-1α TM) expression vector was used for co-transfection. […]
For in vitro VHL binding assay, preincubated GstA and 5 μl of [^35S]methionine-labeled VHL protein were mixed in a total volume of 300 μl of PBS-T with 1 mM desferrioxamine and incubated at 4° C. for 90 min. […] Beads were washed three times with PBS-T. Proteins were eluted in Laemmli sample buffer, fractionated by SDS-PAGE, and detected by autoradiography. […]

The next assay deals with HIF-1α (Homo sapiens, UniProt Q16665). Put plainly: Co-immunoprecipitation of HA-OS-9 and HIF-1α in 293 cells. It counts as cell-based. As to conditions: anti-HA immunoprecipitation, FIG. 2B. The protocol:
(§2) 293 cells (3×10^6 cells per […] plate) were transfected with Lipofectamine Plus and a total of 10 μg of expression vectors. After 24 h, cells were lysed with PBS/0.1% Tween-20. 400 μg of whole cell lysate (brought to a final volume of 200 μl with lysis buffer) were immunoprecipitated using anti-HA affinity matrix (Roche) followed by immunoblot assay using antibody against HIF-1α (Zhong et al. 1999), PHD 1-3 (Novus Biologicals Inc.), or HA (Roche).

Another assay addresses T2, PHD3 (Homo sapiens, UniProt Q9H6Z9).
T2 construct: expressed in transfected cells; host or cells: 293 cells
Put plainly: Co-immunoprecipitation of HA-OS-9 with PHD3 in 293 cells. It counts as cell-based. As to conditions: anti-HA immunoprecipitates, immunoblot; FIG. 5. The protocol:
as §2
In general terms: In western blotting, separated proteins are transferred to a membrane and probed.

For assay [3], the target named is T1, PHD2. Put plainly: PHD binding assay (pull down of PHD2 with GST-HIF-1α (531-826)). The following applies: lysates from cells transfected with OS-9 and PHD2 vectors versus PHD2 vector alone; FIG. 7B. The protocol: as §1

T1 sequence (Q9GZT9 whole entry): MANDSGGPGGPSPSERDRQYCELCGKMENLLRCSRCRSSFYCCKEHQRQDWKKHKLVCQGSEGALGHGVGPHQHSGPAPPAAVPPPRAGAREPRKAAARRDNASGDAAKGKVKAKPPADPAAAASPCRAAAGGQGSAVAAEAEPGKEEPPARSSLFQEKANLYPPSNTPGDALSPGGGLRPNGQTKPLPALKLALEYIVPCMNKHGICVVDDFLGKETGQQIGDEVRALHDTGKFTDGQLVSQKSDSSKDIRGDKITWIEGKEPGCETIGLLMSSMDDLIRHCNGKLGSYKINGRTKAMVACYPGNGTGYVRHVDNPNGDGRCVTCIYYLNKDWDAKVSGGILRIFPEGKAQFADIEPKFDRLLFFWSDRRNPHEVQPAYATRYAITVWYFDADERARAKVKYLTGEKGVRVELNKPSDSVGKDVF
Sequence of HIF-1α (Q16665 whole entry): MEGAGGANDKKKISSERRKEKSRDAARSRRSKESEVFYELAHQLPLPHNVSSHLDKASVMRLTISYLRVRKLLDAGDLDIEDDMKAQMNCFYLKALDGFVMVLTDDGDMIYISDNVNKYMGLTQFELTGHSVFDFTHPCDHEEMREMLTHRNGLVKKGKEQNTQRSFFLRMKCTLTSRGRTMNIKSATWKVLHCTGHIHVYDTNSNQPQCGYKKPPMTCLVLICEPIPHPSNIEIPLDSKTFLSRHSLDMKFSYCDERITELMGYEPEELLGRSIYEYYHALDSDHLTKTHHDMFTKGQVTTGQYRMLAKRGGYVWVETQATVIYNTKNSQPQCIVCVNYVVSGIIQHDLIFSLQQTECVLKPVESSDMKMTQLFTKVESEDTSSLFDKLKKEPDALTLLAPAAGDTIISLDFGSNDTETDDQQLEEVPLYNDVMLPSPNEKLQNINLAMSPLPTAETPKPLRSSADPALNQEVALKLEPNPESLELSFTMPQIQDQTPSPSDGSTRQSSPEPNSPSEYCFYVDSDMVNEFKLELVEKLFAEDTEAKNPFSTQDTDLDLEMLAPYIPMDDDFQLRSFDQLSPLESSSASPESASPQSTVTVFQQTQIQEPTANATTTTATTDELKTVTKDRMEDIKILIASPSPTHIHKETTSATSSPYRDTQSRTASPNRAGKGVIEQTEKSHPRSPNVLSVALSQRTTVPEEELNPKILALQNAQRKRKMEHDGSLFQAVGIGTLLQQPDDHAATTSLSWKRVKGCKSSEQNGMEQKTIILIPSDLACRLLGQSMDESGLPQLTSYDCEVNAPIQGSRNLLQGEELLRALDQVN
T2 sequence (Q9H6Z9 whole entry): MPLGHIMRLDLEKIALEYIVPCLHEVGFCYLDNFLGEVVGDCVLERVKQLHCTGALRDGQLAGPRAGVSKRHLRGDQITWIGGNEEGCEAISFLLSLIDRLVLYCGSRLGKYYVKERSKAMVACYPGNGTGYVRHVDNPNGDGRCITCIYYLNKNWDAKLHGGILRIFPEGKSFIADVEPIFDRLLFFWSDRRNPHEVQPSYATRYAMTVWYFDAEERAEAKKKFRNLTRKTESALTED

B1: OS-9: human OS-9 protein (667-residue isoform), HA-tagged, from expression vector or in vitro-translated (protein)
chain: MAAETLLSSLLGLLLLGLLLPASLTGGVGSLNLEELSEMRYGIEILPLPVMGGQSQSSDVVIVSSKYKQRYECRLPAGAIHFQREREEETPAYQGPGIPELLSPMRDAPCLLKTKDWWTYEFCYGRHIQQYHMEDSEIKGEVLYLGYYQSAFDWDDETAKASKQHRLKRYHSQTYGNGSKCDLNGRPREAEVRFLCDEGAGISGDYIDRVDEPLSCSYVLTIRTPRLCPHPLLRPPPSAAPQAILCHPSLQPEEYMAYVQRQADSKQYGDKIIEELQDLGPQVWSETKSGVAPQKMAGASPTKDDSKDSDFWKMLNEPEDQAPGGEEVPAEEQDPSPEAADSASGAPNDFQNNVQVKVIRSPADLIRFIEELKGGTKKGKPNIGQEQPVDDAAEVPQREPEKERGDPERQREMEEEEDEDEDEDEDEDERQLLGEFEKELEGILLPSDRDRLRSEVKAGMERELENIIQETEKELDPDGLKKESERDRAMLALTSTLNKLIKRLEEKQSPELVKKHKKKRVVPKKPPPSPQPTEEDPEHRVRVRVTKLRLGGPNQDLTVLEMKRENPQLKQIEGLVKELLEREGLTAAGKIEIKIVRPWAEGTEEGARWLTDEDTRNLKEIFFNILVPGAEEAQKERQRQKELESNYRRVWGSPGGEGTGDLDEFDF
modifications: left off: small tags and cut ends
notes: human OS-9 protein (667-residue isoform), HA-tagged, from expression vector or in vitro-translated
On to B1, for which the “prolyl hydroxylation of GST-HIF-1α (531-826) (hydroxyproline at residue 564)” value with PHD2 [1] (immunoblot with anti-Hyp-564 antibody, FIG. 7A middle panel) is “increase”. Besides, in the assay with PHD2 [1] (increasing amounts of in vitro-translated OS-9 added after hydroxylation, desferrioxamine present, FIG. 6C), the “binding of VHL to hydroxylated GST-HIF-1α (531-826)” value is given as “no effect”. For the same molecule, the “VHL binding to GST-HIF-1α (531-826)” value with PHD2 [1] (lysates from cells co-transfected with PHD2 and OS-9 versus PHD2 alone, FIG. 7A top panel) is “further increased”. Also, in the assay with PHD2 [2], the PHD2 protein levels result is listed as “no effect”. In addition, the “interaction of HA-OS-9 and HIF-1α in living cells” value in the assay with HIF-1α is reported as “coimmunoprecipitation”. For the same molecule, in the assay with PHD3, the “interaction of OS-9 with PHD3” value is given as “interaction”. For the same molecule, the “binding of PHD2 to GST-HIF-1α (531-826)” value in the assay with PHD2 [3] is given as “increased binding”.
